# Target: STAT3 (UniProt P40763)
# Test: co-immunoprecipitation, immunoblot
# Conditions: reference: wild-type EZH2; sites S21
substance,measurement,value
EZH2 (from UniProt Q15910) EZH2 S21A,binding against the reference,lost
